{
  "source": "patent US20090166224A1",
  "about": "(published 2009)",
  "binders": {"B1": {"name": "wheat germ agglutinin (WGA), agarose-bound (other, UniProt P10968 27-197, looked up)", "chain": "QRCGEQGSNMECPNNLCCSQYGYCGMGGDYCGKGCQNGACWTSKRCGSQAGGATCTNNQCCSQYGYCGFGAEYCGAGCQGGPCRADIKCGSQAGGKLCPNNLCCSQWGFCGLGSEFCGGGCQSGACSTDKPCGKDAGGRVCTNNYCCSKWGSCGIGPGYCGAGCQSGGCDG", "modifications": "immobilized on agarose", "notes": "Lectin; released with N-acetyl-glucosamine; Coated on the plate in the lectin ELISA"}},
  "assay_in_all_cases": "human serum on Con A/WGA/Jacalin column, lectin-specific displacer fraction, LC-MS/MS; grade = SEQUEST rank group (+ = ranks 1-5, ++++ = 16-20)",
  "key": {"[1]": {"biological_target": "T1, PLASMA PROTEASE C1 INHIBITOR (human, UniProt P05155 23-500)", "T1 construct": "from human serum; also called IC1", "T1 sequence (looked up)": "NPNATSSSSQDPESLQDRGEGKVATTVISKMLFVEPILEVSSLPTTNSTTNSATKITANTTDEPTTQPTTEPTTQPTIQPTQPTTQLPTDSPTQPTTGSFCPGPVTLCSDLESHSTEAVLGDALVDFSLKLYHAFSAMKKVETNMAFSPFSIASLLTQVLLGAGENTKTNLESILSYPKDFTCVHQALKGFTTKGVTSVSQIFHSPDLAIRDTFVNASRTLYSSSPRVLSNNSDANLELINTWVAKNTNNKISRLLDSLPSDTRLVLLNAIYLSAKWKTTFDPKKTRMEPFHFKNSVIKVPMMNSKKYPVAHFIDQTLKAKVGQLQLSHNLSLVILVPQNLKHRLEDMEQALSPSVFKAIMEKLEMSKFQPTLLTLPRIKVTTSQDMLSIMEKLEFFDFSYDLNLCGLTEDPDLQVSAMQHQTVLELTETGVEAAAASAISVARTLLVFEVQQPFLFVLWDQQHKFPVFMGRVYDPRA"}, "[2]": {"biological_target": "T2, IG ALPHA-1 CHAIN C REGION (human, UniProt P01876-1 1-353)", "T2 construct": "domain: C region; Polyclonal serum IgA, identified through its constant region; variable regions and light chains not defined; also called ALC1", "T2 sequence (P01876 other isoform, or with tags, fused parts or gaps limits assumed)": "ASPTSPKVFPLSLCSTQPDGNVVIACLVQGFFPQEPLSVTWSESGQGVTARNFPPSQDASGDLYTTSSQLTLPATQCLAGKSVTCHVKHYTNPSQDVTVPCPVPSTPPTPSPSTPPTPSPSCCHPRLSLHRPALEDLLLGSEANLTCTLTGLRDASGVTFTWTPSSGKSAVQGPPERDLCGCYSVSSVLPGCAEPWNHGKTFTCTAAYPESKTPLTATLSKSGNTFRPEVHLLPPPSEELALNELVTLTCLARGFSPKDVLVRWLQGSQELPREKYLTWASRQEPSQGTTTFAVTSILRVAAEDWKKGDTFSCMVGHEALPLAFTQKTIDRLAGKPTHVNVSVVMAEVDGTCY"}, "[3]": {"biological_target": "T3, HEMOPEXIN (human, UniProt P02790 24-462)", "T3 construct": "from human serum", "T3 sequence (looked up)": "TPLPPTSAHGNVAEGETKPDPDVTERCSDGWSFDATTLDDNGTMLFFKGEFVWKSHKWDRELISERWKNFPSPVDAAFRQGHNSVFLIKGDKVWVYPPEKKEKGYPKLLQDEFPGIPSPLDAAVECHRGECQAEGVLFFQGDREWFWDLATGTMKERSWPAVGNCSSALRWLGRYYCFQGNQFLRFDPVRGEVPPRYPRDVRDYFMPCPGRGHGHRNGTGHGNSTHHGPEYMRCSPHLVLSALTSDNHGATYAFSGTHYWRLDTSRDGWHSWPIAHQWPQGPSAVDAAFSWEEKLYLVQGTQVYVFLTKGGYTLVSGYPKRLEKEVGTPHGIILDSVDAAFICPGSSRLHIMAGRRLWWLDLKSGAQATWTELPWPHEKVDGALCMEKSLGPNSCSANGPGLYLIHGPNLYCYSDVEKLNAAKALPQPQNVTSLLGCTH"}, "[4]": {"biological_target": "T4, ALPHA-2-MACROGLOBULIN (human, UniProt P01023 24-1474)", "T4 construct": "also called A2MG; α2-macroglobulin", "T4 sequence (looked up)": "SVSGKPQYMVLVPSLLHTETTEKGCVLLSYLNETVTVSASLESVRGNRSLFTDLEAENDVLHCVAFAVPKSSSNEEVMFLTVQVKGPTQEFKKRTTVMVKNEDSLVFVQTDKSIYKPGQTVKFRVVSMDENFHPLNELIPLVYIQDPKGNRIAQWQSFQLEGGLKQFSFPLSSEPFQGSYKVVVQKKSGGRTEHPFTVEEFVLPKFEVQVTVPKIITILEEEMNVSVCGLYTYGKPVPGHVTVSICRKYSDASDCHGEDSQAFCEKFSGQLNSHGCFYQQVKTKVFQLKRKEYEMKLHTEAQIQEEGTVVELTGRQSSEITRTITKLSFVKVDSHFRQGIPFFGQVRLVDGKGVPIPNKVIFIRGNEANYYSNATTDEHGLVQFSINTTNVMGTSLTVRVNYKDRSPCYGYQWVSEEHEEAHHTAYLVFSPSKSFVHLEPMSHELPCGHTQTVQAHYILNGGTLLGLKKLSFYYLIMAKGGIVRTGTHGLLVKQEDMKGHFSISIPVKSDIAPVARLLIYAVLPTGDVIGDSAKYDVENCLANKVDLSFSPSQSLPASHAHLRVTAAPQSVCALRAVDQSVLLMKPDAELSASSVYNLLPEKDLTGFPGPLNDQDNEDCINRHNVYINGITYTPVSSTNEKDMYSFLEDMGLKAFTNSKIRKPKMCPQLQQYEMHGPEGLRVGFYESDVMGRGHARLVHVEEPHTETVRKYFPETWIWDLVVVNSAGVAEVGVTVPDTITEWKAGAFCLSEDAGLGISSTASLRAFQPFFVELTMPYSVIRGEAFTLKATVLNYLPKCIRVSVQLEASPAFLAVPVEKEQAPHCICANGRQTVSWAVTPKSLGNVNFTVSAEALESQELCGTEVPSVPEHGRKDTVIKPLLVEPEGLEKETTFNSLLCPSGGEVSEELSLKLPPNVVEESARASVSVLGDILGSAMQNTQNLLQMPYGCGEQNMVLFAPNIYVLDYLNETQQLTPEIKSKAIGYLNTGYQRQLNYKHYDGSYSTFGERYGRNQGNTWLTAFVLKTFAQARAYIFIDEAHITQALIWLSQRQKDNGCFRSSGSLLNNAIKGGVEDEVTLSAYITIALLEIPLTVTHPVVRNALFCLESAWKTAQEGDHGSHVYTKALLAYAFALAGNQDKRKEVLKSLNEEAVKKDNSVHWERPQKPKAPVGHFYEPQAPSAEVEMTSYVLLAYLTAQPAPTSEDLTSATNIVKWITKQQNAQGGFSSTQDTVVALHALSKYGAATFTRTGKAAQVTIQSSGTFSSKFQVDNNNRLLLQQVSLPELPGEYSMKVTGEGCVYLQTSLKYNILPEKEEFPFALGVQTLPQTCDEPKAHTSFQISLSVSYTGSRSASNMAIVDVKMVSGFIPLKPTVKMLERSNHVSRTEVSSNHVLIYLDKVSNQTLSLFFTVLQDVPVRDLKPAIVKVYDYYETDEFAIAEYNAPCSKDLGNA"}},
  "data": [
    {"binder": "B1", "values": [
      {"measurement": "SEQUEST ranking (relative abundance in the WGA displacement fraction)", "setting": "[1]", "result": "16 to 20", "unit": "rank"},
      {"measurement": "SEQUEST ranking (relative abundance in the WGA displacement fraction)", "setting": "[2]", "result": "1 to 5", "unit": "rank"},
      {"measurement": "SEQUEST ranking (relative abundance in the WGA displacement fraction)", "setting": "[3]", "result": "1 to 5", "unit": "rank"},
      {"measurement": "SEQUEST ranking (relative abundance in the WGA displacement fraction)", "setting": "[4]", "result": "1 to 5", "unit": "rank"}
    ]}
  ]
}
